# Measured values reported in patent US20050226848, “Transcriptional regulation of gene expression by small double-stranded modulatory RNA” (published 2005).
# Biological target: Bovine serum albumin (Bos taurus, UniProt P02769 P02769:25-607)
# Experiment: EMSA; BSA control
# Experimental: To compare the affinity between NRSE dsDNA and NRSE dsRNA to NRSF/REST protein, an electrophoretic mobility shift assay (EMSA) was performed. NRSF/REST with cMyc-tag was expressed in 293T cells and immunoprecipitated with anti-cMyc antiboby. After purification, the protein was incubated with either NRSE dsDNAs or dsRNAs. A range of NRSF/REST protein concentrations was tested; the highest one tested produced a shift in dsDNA migration, whereas a 16-fold lower concentration of NRSF/REST protein was enough to produce a shift in dsRNA (FIG. 6C). […] Binding of NRSF/REST to the sequence of the MCS control dsRNAs or dsDNAs was not observed. […] This highly specific binding between NRSE dsRNA and NRSF/REST protein may contribute to a functional switch of the NRSF/REST machinery from transcriptional repressor to activator.
# Sequence of Bovine serum albumin (P02769 25-607, one chain of several): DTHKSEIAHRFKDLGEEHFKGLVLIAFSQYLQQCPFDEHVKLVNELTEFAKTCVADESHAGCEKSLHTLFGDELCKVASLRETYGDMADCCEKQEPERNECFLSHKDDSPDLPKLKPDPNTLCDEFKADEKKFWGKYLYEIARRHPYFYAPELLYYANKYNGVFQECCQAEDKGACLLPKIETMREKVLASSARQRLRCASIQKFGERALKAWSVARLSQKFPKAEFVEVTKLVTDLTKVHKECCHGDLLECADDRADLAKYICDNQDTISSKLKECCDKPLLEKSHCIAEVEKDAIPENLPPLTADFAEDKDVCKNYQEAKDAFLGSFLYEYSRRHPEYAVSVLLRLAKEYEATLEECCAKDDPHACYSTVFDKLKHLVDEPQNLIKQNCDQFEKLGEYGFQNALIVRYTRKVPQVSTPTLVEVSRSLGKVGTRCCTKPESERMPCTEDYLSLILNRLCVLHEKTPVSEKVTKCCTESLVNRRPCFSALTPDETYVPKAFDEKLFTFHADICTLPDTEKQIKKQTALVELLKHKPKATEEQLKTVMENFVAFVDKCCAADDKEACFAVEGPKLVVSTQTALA
row,Binder,binding result
1,NRSE/RE1 dsDNA (dsDNA) DNA 1: TTCAGCACCACGGACAGCGCC DNA 2: GGCGCTGTCCGTGGTGCTGAA,no binding
2,NRSE dsRNA (dsRNA) RNA 1: UUCAGCACCACGGACAGCGCC RNA 2: GGCGCUGUCCGUGGUGCUGAA,no binding
